Each block holds one binder with its values, some of them ahead of it.
Assays:
Test in all cases: Ni-NTA pull-down with immunoblot quantification (ImageJ)
Settings in all cases: chain shown with the change; U2OS UNC45A-KO cells cotransfected; 5 independent experiments; parent: est. 1; read off a plot
[1] = biological target: T1, His-tagged UNC45A p.Leu237Pro mutant, Q9H3U1-1
T1 chain: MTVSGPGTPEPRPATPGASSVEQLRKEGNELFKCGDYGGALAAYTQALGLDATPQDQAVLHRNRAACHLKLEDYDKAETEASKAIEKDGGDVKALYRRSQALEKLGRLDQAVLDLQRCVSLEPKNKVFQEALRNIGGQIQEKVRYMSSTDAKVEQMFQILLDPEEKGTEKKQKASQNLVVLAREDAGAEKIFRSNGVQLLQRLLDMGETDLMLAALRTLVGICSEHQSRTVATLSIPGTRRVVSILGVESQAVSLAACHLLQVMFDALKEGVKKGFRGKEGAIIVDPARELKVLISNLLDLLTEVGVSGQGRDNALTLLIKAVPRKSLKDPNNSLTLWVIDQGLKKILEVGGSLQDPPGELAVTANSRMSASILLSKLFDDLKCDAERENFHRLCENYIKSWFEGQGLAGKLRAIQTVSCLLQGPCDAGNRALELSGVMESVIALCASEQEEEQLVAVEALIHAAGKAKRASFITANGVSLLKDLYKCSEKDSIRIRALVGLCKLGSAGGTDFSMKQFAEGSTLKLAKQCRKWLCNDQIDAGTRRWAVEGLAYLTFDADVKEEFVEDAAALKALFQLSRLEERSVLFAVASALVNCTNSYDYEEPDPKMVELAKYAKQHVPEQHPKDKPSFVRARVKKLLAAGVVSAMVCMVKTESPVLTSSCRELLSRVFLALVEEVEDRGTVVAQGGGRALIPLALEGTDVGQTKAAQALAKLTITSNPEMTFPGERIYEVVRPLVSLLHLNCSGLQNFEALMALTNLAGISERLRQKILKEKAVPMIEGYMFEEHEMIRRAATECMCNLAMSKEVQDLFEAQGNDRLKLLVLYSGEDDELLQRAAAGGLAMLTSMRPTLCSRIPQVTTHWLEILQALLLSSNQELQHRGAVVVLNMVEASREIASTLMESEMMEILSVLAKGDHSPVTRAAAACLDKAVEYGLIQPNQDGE

[2] = biological target: T2, HA-tagged UNC45A wild-type (Unc-45 myosin chaperone A), Q9H3U1-1
T2 chain: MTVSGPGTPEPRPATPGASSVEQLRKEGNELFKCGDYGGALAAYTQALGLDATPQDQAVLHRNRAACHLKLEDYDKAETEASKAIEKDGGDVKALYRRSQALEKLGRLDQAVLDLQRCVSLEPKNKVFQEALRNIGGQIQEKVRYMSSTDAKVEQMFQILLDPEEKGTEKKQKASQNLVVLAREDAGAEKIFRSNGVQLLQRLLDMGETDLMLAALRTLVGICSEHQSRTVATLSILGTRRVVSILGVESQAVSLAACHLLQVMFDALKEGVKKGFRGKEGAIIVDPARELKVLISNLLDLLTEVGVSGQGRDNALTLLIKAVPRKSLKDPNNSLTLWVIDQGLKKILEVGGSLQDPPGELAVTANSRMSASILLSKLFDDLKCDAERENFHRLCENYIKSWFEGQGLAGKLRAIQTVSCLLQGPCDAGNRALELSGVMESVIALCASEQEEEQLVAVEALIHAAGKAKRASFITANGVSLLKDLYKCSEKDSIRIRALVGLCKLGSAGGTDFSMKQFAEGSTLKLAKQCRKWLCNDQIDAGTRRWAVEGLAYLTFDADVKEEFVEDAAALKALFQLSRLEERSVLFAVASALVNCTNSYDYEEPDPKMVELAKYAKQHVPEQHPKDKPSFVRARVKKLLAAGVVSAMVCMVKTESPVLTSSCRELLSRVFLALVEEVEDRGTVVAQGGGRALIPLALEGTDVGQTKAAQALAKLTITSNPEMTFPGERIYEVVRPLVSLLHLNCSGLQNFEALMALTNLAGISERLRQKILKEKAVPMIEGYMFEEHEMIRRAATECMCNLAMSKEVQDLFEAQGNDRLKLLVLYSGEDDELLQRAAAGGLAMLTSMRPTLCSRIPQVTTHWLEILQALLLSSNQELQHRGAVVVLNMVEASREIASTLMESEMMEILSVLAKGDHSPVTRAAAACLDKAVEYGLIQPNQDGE

[3] = biological target: T3, His-tagged UNC45A wild-type, Q9H3U1-1
T3 chain: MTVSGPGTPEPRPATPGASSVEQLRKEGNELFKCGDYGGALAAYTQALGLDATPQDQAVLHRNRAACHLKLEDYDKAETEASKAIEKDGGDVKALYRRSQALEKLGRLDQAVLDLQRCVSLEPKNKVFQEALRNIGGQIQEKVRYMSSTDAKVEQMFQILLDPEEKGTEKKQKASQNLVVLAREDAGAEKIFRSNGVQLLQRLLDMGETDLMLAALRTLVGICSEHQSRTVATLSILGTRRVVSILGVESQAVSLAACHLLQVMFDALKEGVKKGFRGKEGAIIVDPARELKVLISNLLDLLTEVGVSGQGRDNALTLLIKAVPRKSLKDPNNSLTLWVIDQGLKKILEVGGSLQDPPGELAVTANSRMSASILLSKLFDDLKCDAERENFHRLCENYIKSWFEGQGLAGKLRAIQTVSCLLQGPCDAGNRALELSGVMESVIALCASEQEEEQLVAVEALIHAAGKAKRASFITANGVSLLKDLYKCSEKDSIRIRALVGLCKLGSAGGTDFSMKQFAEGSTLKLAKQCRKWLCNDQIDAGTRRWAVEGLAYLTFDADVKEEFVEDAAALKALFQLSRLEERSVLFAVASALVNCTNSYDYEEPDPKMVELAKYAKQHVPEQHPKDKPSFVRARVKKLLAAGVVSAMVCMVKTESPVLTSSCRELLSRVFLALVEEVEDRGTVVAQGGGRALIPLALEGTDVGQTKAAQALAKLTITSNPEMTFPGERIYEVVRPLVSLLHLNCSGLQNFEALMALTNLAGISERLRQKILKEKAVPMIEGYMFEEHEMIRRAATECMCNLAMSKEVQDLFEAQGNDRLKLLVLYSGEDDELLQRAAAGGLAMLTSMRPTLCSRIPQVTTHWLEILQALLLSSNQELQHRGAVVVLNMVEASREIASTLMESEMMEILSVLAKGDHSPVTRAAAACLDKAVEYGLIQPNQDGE

ratio to parent [1]: 12 fold change
B1: m1 (prey) and m3 (bait) p.Leu237Pro (HA-tagged prey); p.Leu237Pro (His-tagged bait) (protein)
chain: MTVSGPGTPEPRPATPGASSVEQLRKEGNELFKCGDYGGALAAYTQALGLDATPQDQAVLHRNRAACHLKLEDYDKAETEASKAIEKDGGDVKALYRRSQALEKLGRLDQAVLDLQRCVSLEPKNKVFQEALRNIGGQIQEKVRYMSSTDAKVEQMFQILLDPEEKGTEKKQKASQNLVVLAREDAGAEKIFRSNGVQLLQRLLDMGETDLMLAALRTLVGICSEHQSRTVATLSIPGTRRVVSILGVESQAVSLAACHLLQVMFDALKEGVKKGFRGKEGAIIVDPARELKVLISNLLDLLTEVGVSGQGRDNALTLLIKAVPRKSLKDPNNSLTLWVIDQGLKKILEVGGSLQDPPGELAVTANSRMSASILLSKLFDDLKCDAERENFHRLCENYIKSWFEGQGLAGKLRAIQTVSCLLQGPCDAGNRALELSGVMESVIALCASEQEEEQLVAVEALIHAAGKAKRASFITANGVSLLKDLYKCSEKDSIRIRALVGLCKLGSAGGTDFSMKQFAEGSTLKLAKQCRKWLCNDQIDAGTRRWAVEGLAYLTFDADVKEEFVEDAAALKALFQLSRLEERSVLFAVASALVNCTNSYDYEEPDPKMVELAKYAKQHVPEQHPKDKPSFVRARVKKLLAAGVVSAMVCMVKTESPVLTSSCRELLSRVFLALVEEVEDRGTVVAQGGGRALIPLALEGTDVGQTKAAQALAKLTITSNPEMTFPGERIYEVVRPLVSLLHLNCSGLQNFEALMALTNLAGISERLRQKILKEKAVPMIEGYMFEEHEMIRRAATECMCNLAMSKEVQDLFEAQGNDRLKLLVLYSGEDDELLQRAAAGGLAMLTSMRPTLCSRIPQVTTHWLEILQALLLSSNQELQHRGAVVVLNMVEASREIASTLMESEMMEILSVLAKGDHSPVTRAAAACLDKAVEYGLIQPNQDGE

ratio to parent [2]: 2.2 fold change
B2: His-tagged UNC45A wild-type, Q9H3U1-1 p.Leu237Pro (protein)
chain: MTVSGPGTPEPRPATPGASSVEQLRKEGNELFKCGDYGGALAAYTQALGLDATPQDQAVLHRNRAACHLKLEDYDKAETEASKAIEKDGGDVKALYRRSQALEKLGRLDQAVLDLQRCVSLEPKNKVFQEALRNIGGQIQEKVRYMSSTDAKVEQMFQILLDPEEKGTEKKQKASQNLVVLAREDAGAEKIFRSNGVQLLQRLLDMGETDLMLAALRTLVGICSEHQSRTVATLSIPGTRRVVSILGVESQAVSLAACHLLQVMFDALKEGVKKGFRGKEGAIIVDPARELKVLISNLLDLLTEVGVSGQGRDNALTLLIKAVPRKSLKDPNNSLTLWVIDQGLKKILEVGGSLQDPPGELAVTANSRMSASILLSKLFDDLKCDAERENFHRLCENYIKSWFEGQGLAGKLRAIQTVSCLLQGPCDAGNRALELSGVMESVIALCASEQEEEQLVAVEALIHAAGKAKRASFITANGVSLLKDLYKCSEKDSIRIRALVGLCKLGSAGGTDFSMKQFAEGSTLKLAKQCRKWLCNDQIDAGTRRWAVEGLAYLTFDADVKEEFVEDAAALKALFQLSRLEERSVLFAVASALVNCTNSYDYEEPDPKMVELAKYAKQHVPEQHPKDKPSFVRARVKKLLAAGVVSAMVCMVKTESPVLTSSCRELLSRVFLALVEEVEDRGTVVAQGGGRALIPLALEGTDVGQTKAAQALAKLTITSNPEMTFPGERIYEVVRPLVSLLHLNCSGLQNFEALMALTNLAGISERLRQKILKEKAVPMIEGYMFEEHEMIRRAATECMCNLAMSKEVQDLFEAQGNDRLKLLVLYSGEDDELLQRAAAGGLAMLTSMRPTLCSRIPQVTTHWLEILQALLLSSNQELQHRGAVVVLNMVEASREIASTLMESEMMEILSVLAKGDHSPVTRAAAACLDKAVEYGLIQPNQDGE

ratio to parent [3]: 1.6 fold change
B3: HA-tagged UNC45A wild-type (Unc-45 myosin chaperone A), Q9H3U1-1 p.Leu237Pro (protein)
chain: MTVSGPGTPEPRPATPGASSVEQLRKEGNELFKCGDYGGALAAYTQALGLDATPQDQAVLHRNRAACHLKLEDYDKAETEASKAIEKDGGDVKALYRRSQALEKLGRLDQAVLDLQRCVSLEPKNKVFQEALRNIGGQIQEKVRYMSSTDAKVEQMFQILLDPEEKGTEKKQKASQNLVVLAREDAGAEKIFRSNGVQLLQRLLDMGETDLMLAALRTLVGICSEHQSRTVATLSIPGTRRVVSILGVESQAVSLAACHLLQVMFDALKEGVKKGFRGKEGAIIVDPARELKVLISNLLDLLTEVGVSGQGRDNALTLLIKAVPRKSLKDPNNSLTLWVIDQGLKKILEVGGSLQDPPGELAVTANSRMSASILLSKLFDDLKCDAERENFHRLCENYIKSWFEGQGLAGKLRAIQTVSCLLQGPCDAGNRALELSGVMESVIALCASEQEEEQLVAVEALIHAAGKAKRASFITANGVSLLKDLYKCSEKDSIRIRALVGLCKLGSAGGTDFSMKQFAEGSTLKLAKQCRKWLCNDQIDAGTRRWAVEGLAYLTFDADVKEEFVEDAAALKALFQLSRLEERSVLFAVASALVNCTNSYDYEEPDPKMVELAKYAKQHVPEQHPKDKPSFVRARVKKLLAAGVVSAMVCMVKTESPVLTSSCRELLSRVFLALVEEVEDRGTVVAQGGGRALIPLALEGTDVGQTKAAQALAKLTITSNPEMTFPGERIYEVVRPLVSLLHLNCSGLQNFEALMALTNLAGISERLRQKILKEKAVPMIEGYMFEEHEMIRRAATECMCNLAMSKEVQDLFEAQGNDRLKLLVLYSGEDDELLQRAAAGGLAMLTSMRPTLCSRIPQVTTHWLEILQALLLSSNQELQHRGAVVVLNMVEASREIASTLMESEMMEILSVLAKGDHSPVTRAAAACLDKAVEYGLIQPNQDGE

Reference: publication PMC11949031
